Patent publication US20220023333A1, “METHOD FOR INCREASING CANCER PATIENT'S HAEMOGLOBIN LEVEL” (priority 2019, published 2022)

Assay: Blood haemoglobin level in cancer patients (case examples 1-9)
Format: in vivo, human
Text: […] Diagnosis: progressive diffuse-nodular multiple myeloma of the stage IIIB. Myelogenic nephropathy, stage III CKD, terminal stage. Chronic programmed dialysis. The initial level of haemoglobin was 72 g/l. The receiving of EPO 20000 IU and iron preparations was prescribed for a month, as a result of which the level of haemoglobin increased to 84 g/l. However, the patient's condition worsened, and there were diagnosed acute transmural myocardial infarction and weight loss in the patient. The patient was prescribed the administration of 30 ml of the sterile pyrogen-free aqueous solution of the poloxamer comprising 13.3 wt % poloxamer-188 (Emuxol-268 of Grade “A”) and water for injection as the remaining part for 30 days. The level of haemoglobin was 116 g/l. Then, 30 ml of the said poloxamer solution was administered to the patient on a daily basis during 9 courses of chemotherapy (cyclophosphan and boramilane), while EPO and iron preparations were no longer prescribed. The level of haemoglobin was maintained in the range of 116-125 g/l.
[…] Diagnosis: locally advanced or metastatic bladder cancer of the 4t^h stage with lumbar vertebral metastases. The initial level of haemoglobin was 129 g/l.
Immunotherapy 1: the patient underwent a course of the therapy with the nivolumab preparation (Opdivo) for 4 months. […]

## nivolumab
Example 2, Patient A, bladder cancer 4th stage, nivolumab (Opdivo) for 4 months with regular donated red blood cell transfusion, initial level 129 g/l
  level of haemoglobin after therapy: 123000 µg/mL
Example 5, Patient D, right kidney tumor with metastases, nivolumab (Opdivo) immunotherapy, 1 course, initial level 148 g/l
  level of haemoglobin after 1 course: 104000 µg/mL
